According to paper PMC3006384, “Phosphorylation of Mouse Immunity-Related GTPase (IRG) Resistance Proteins Is an Evasion Strategy for Virulent Toxoplasma gondii” (PLoS Biology, 2010):

B1: recombinant wt Irga6 (bacterially expressed, from pGEX-4T-2-Irga6) [mouse] / itself (parent)
chain: MGQLFSSPKSDENNDLPSSFTGYFKKFNTGRKIISQEILNLIELRMRKGNIQLTNSAISDALKEIDSSVLNVAVTGETGSGKSSFINTLRGIGNEEEGAAKTGVVEVTMERHPYKHPNIPNVVFWDLPGIGSTNFPPNTYLEKMKFYEYDFFIIISATRFKKNDIDIAKAISMMKKEFYFVRTKVDSDITNEADGKPQTFDKEKVLQDIRLNCVNTFRENGIAEPPIFLLSNKNVCHYDFPVLMDKLISDLPIYKRHNFMVSLPNITDSVIEKKRQFLKQRIWLEGFAADLVNIIPSLTFLLDSDLETLKKSMKFYRTVFGVDETSLQRLARDWEIEVDQVEAMIKSPAVFKPTDEETIQERLSRYIQEFCLANGYLLPKNSFLKEIFYLKYYFLDMVTEDAKTLLKEICLRN

Variants of: B1
Assay: light scattering (GTP-dependent oligomerisation)
Settings: with itself, value read at the last time point, 60 min, parent: 0.61, read off a plot

| Variant | response [a.u.] |
| --- | --- |
| MGQLFSSPKSDENNDLPSSFTGYFKKFNTGRKIISQEILNLIELRMRKGNIQLTNSAISDALKEIDSSVLNVAVTGETGSGKSSFINTLRGIGNEEEGAAKTGVVEVDMERHPYKHPNIPNVVFWDLPGIGSTNFPPNTYLEKMKFYEYDFFIIISATRFKKNDIDIAKAISMMKKEFYFVRTKVDSDITNEADGKPQTFDKEKVLQDIRLNCVNTFRENGIAEPPIFLLSNKNVCHYDFPVLMDKLISDLPIYKRHNFMVSLPNITDSVIEKKRQFLKQRIWLEGFAADLVNIIPSLTFLLDSDLETLKKSMKFYRTVFGVDETSLQRLARDWEIEVDQVEAMIKSPAVFKPTDEETIQERLSRYIQEFCLANGYLLPKNSFLKEIFYLKYYFLDMVTEDAKTLLKEICLRN [chain 1 T108D] | 0.22 |
